According to patent US20260216242A1 (ALMAC DISCOVERY, published 2026):

T1: Human ALPL (leucine zipper) (human)
T1 construct: Whole entry: fused with a cysteine stabilised leucine zipper and His tag; also called hALPL
T1 chain: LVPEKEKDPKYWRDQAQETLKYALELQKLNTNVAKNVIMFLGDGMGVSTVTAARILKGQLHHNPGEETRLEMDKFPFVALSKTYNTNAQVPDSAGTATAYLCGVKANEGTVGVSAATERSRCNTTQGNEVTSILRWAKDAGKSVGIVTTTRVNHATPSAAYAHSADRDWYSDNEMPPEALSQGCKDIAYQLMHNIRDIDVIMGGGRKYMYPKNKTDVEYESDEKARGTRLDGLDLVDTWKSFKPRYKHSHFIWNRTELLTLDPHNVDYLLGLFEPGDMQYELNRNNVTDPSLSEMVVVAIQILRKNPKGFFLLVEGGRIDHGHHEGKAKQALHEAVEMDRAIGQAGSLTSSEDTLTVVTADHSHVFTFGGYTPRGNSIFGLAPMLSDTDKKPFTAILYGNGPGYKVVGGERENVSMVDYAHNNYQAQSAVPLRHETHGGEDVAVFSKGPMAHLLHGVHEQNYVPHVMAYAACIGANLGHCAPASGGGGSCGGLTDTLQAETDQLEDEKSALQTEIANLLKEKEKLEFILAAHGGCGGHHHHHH

T2: Human ALPP (leucine zipper) (human)
T2 construct: Whole entry: ALPP fused with a cysteine stabilised leucine zipper and His tag; also called hALPP
T2 chain: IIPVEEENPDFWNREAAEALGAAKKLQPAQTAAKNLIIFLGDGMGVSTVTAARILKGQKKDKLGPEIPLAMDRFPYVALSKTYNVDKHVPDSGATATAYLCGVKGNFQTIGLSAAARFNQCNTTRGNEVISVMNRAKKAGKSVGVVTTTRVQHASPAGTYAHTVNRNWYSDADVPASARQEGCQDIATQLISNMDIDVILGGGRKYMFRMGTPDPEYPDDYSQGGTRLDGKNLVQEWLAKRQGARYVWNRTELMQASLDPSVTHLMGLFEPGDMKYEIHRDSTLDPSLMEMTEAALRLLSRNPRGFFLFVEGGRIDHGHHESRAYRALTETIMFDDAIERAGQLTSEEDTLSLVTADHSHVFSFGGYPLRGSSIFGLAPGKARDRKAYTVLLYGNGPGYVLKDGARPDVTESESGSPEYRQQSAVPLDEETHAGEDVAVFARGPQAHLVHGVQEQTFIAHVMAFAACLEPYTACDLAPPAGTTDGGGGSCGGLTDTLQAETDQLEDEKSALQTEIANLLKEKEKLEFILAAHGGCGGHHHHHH

T3: ALPI His homodimer (human, UniProt P09923 20-503)
T3 construct: Whole entry with His tag; used in ELISA and BLI; also called hALPI
T3 sequence: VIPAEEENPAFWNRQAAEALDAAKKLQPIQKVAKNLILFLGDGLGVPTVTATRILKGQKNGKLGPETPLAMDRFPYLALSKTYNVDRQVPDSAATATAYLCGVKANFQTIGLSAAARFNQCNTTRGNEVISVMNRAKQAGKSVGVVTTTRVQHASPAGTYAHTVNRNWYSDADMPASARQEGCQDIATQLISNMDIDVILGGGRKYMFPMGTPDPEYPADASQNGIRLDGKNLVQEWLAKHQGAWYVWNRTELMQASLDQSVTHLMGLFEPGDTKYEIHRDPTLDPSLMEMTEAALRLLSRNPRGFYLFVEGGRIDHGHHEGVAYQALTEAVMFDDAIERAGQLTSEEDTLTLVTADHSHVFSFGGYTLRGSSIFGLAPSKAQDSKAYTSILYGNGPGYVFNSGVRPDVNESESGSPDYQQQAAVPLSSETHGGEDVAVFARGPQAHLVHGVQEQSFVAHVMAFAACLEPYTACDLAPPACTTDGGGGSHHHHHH

T4: Human ALPP (leucine zipper) (human)
T4 construct: Soluble human ALPP fused to a disulphide stabilised leucine zipper and a His tag; The whole entry is the construct; also called hALPP; PLAP
T4 chain: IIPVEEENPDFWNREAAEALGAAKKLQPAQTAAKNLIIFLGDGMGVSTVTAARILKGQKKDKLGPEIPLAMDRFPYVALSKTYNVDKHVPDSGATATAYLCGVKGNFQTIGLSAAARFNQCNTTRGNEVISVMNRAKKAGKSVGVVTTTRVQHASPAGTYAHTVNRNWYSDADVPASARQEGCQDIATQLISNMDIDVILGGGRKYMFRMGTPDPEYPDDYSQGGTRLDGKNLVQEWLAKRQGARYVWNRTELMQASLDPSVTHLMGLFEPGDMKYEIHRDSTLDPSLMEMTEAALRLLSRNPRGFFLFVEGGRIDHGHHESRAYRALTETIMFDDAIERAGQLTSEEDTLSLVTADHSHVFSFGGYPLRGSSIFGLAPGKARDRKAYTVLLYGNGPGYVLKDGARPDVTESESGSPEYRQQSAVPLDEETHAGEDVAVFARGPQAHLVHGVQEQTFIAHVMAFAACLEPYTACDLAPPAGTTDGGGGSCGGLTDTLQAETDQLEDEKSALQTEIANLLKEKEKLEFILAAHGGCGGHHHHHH


Tests used:
[1] = molecular target: T1, Human ALPL (leucine zipper); test: BLI, antigen immobilised
Protocol: (§1) Binding kinetics were determined using the Biolayer Interferometry (BLI) Octet K2 system (Sartorius). […] All assays were conducted in PBS with a plate temperature of 25° C. Ka (M⁻¹s⁻¹), Kd (s⁻¹) and KD (nM) values were determined using Octet Data Analysis High Throughput software (ForteBio) for Biolayer Interferometry.

[2] = molecular target: T2, Human ALPP (leucine zipper); test: BLI, antigen immobilised
Protocol: as §1

ALPI His homodimer = molecular target: T3, ALPI His homodimer; test: ELISA, antigen coated
Description: ELISA was used to test the binding and specificity of the VHHs. […] Anti-Llama—HRP antibody was used for detection.

[3] = molecular target: T4, Human ALPP (leucine zipper); test: BLI, KD app (antigen immobilised on AR2G sensor)
Protocol: Binding kinetics were determined using the Biolayer Interferometry (BLI) Octet K2 or R4 system (Sartorius). […] For KD apparent measurements, the ALPP proteins were immobilised in sodium acetate pH5 buffer to AR2G sensors using amine coupling. To measure 1:1 interactions, AHC biosensors were used to immobilise Fc-fused proteins. All assays were conducted in HBS-EP with a plate temperature of 25° C. Ka (M⁻¹s⁻¹), Kd (s⁻¹) and KD (nM) values were determined using Octet Data Analysis High Throughput software (Sartorius) for Biolayer Interferometry.

| binding result [1] | Kd [2] | koff [2] | kon [2] | binding result (ALPI His homodimer) | kon [3] | Binder |
| --- | --- | --- | --- | --- | --- | --- |
| no binding | < 0.01 nM | < 1e-07 s⁻¹ | 394000 M⁻¹ s⁻¹ | no binding (tested: 500 ng VHH) |  | C05 (VHH, not shown: small tags and cut ends) VHH: QVQLVESGGGLVQAGGSLRLSCAASRRSFSEYAMGWFRQAPGKEREFVAAIGWSGVIEYADSVKGRFTISRDNAKDTVYLQMNSLKPEDTAVYYCAAGLGIRVVSQTPAYWGQGTQVTVSS |
| no binding | < 0.01 nM | < 1e-07 s⁻¹ | 368000 M⁻¹ s⁻¹ | no binding (tested: 500 ng VHH) |  | C06 (VHH, not shown: small tags and cut ends) VHH: QVQLVESGGGLVQPGGSLRVSCAASGPSLSNYAMGWFRQAPGKEREFVAGISWGGGRTSYTDSVKGRFTISRDNAKNTVYLQMNNLKPEDTGVYYCAGRYGRGRNVEYEYDYWGQGTQVTVSS |
| no binding |  |  | 213000 M⁻¹ s⁻¹ | no binding (tested: 500 ng VHH) |  | B11 (VHH, not shown: small tags and cut ends) VHH: QVHLVESGGGSVQAGGSLRLSCAASGPSLSNYAMGWFRQAPGKEREFVAGISWGGGRTSYTDSVKGRFTISRDNAKNTVYLQMNNLKPEDTGVYYCAGRYGRGRNVEYEYDYWGQGTQVTVSS |
| no binding | < 0.01 nM | < 1e-07 s⁻¹ | 175000 M⁻¹ s⁻¹ | no binding (tested: 500 ng VHH) |  | D08 (VHH, not shown: small tags and cut ends) VHH: QVHLVESGGGSVQAGGSLRLSCAASGPSLSNYAMGWFRQAPGKEREFVAGISWGGGRTSYTDSVKGRFTISRDNAKNTVYLQMNNLKPEDTGVYYCAGRYGRGRNVEYEYDYWGQGTKVTVSS |
| no binding | < 0.01 nM | < 1e-07 s⁻¹ | 97700 M⁻¹ s⁻¹ | no binding (tested: 500 ng VHH) |  | D11 (VHH, not shown: small tags and cut ends) VHH: QVQLVESGGGSVQAGGSLRLSCAASGPSLSNYAMGWFRQAPGKEREFVAGISWGGGRTSYTDSVKGRFTISRDNAKNTVYLQMNNLKPEDTGVYYCAGRYGRGRNVEYEYDYWGQGTMVTVSS |
| no binding | 0.03 nM | 1.2e-05 s⁻¹ | 429000 M⁻¹ s⁻¹ | no binding (tested: 500 ng VHH) |  | A08 (VHH, not shown: small tags and cut ends) VHH: QVQLVESGGGLVQAGESLRLACAASGTIFSGNAVGWYRQAPEKQREWVSSITDYGDTDYAEAVKGRFTISRDNAKNTVYLQMNSLKPEDTAVYYCYVYQRGESEEYWGQGTKVTVSS |
|  |  |  |  |  | 421000 M⁻¹ s⁻¹ | A06 E10-hFc (S239C + S442C), mixed linkers (A06 - [G4S]1, E10 - [G4S]3) (Fc fusion, Biparatopic heterodimer; also called #707) chain 1: QVHLVESGGGLVQAGGSLRLSCAASGRTFLSMGWFRQAPGKEREFVAAISWTGGSTGYADSVKGRFTISRESDKETMYLQMNSLKPEDTAVYYCAARGDVYYGGDDATRYKYWGQGTQVTVSSGGGGSEPKSSDKTHTCPPCPAPELLGGPCVFLFPPKPKDTLMISRTPEVTCVVVDVSHEDPEVKFNWYVDGVEVHNAKTKPREEQYNSTYRVVSVLTVLHQDWLNGKEYKCKVSNKALPAPIEKTISKAKGQPREPQVYTLPPSRDELTKNQVSLYCLVKGFYPSDIAVEWESNGQPENNYKTTPPVLDSDGSFFLYSKLTVDKSRWQQGNVFSCSVMHEALHNHYTQKSLCLSPGK chain 2: QVQLVESGGGLVQAGGSLRLSCAVSGRALSDYNIGWFRQAPGKEREFVARKTWDGSSTRYDDSVKGRFTVSIEDAKNTAYLQMSSLKTEDTAVYYCAAGRYSRARGWEYDYWGQGTQVTVSSGGGGSGGGGSGGGGSEPKSSDKTHTCPPCPAPELLGGPCVFLFPPKPKDTLMISRTPEVTCVVVDVSHEDPEVKFNWYVDGVEVHNAKTKPREEQYNSTYRVVSVLTVLHQDWLNGKEYKCKVSNKALPAPIEKTISKAKGQPREPQVYTLPPSRDELTKNQVSLTCLVKGFYPSDIAVEWESNGQPENNYKTTPPVLDSDGSFFLTSKLTVDKSRWQQGNVFSCSVMHEALHNHYTQKSLCLSPGK |
|  |  |  |  |  | 426000 M⁻¹ s⁻¹ | A06 F05-hFc (S239C + S442C), mixed linkers (A06 - [G4S]1, F05 - [G4S]3) (Fc fusion, Biparatopic heterodimer; also called #708) chain 1: QVHLVESGGGLVQAGGSLRLSCAASGRTFLSMGWFRQAPGKEREFVAAISWTGGSTGYADSVKGRFTISRESDKETMYLQMNSLKPEDTAVYYCAARGDVYYGGDDATRYKYWGQGTQVTVSSGGGGSEPKSSDKTHTCPPCPAPELLGGPCVFLFPPKPKDTLMISRTPEVTCVVVDVSHEDPEVKFNWYVDGVEVHNAKTKPREEQYNSTYRVVSVLTVLHQDWLNGKEYKCKVSNKALPAPIEKTISKAKGQPREPQVYTLPPSRDELTKNQVSLYCLVKGFYPSDIAVEWESNGQPENNYKTTPPVLDSDGSFFLYSKLTVDKSRWQQGNVFSCSVMHEALHNHYTQKSLCLSPGK chain 2: QVQLVESGGGLVQAGGSLRLSCAASGRAFGDYNIGWFRQAPGKEREFVARRTWDGSSTRYDDSVKGRFTVSIDNAKNTAYLQMNSLKTEDTAVYYCAAGRYSRVRGWEYDYWGQGTQVTVSSGGGGSGGGGSGGGGSEPKSSDKTHTCPPCPAPELLGGPCVFLFPPKPKDTLMISRTPEVTCVVVDVSHEDPEVKFNWYVDGVEVHNAKTKPREEQYNSTYRVVSVLTVLHQDWLNGKEYKCKVSNKALPAPIEKTISKAKGQPREPQVYTLPPSRDELTKNQVSLTCLVKGFYPSDIAVEWESNGQPENNYKTTPPVLDSDGSFFLTSKLTVDKSRWQQGNVFSCSVMHEALHNHYTQKSLCLSPGK |
